Results from US20110177501, “BIOSENSOR FOR DETECTION AND VISUALISATION OF SINGLE-STRANDED DNA” (MEDICAL RESEARCH COUNCIL, published 2011).

Legend:
[1] = target: T1, IDCC-E. coli SSB (G26C) (Escherichia coli, UniProt P0AGE0 SEQ:1-177, G26C (mature protein numbering as printed)); test: competition; ratio Kd(IDCC-SSB)/Kd(unlabeled SSB); 200 mM NaCl, 30 C; details: tags: IDCC diethylaminocoumarin label on Cys26; chain copies: 4 (stated, tetramer)
Description: (§1) In order to obtain a molecule suitable for solution measurements, a suitably large fluorescence increase on binding DNA, together with reasonably bright fluorescence quantum yield are the main criteria. Fluorescence spectra of 250 nM labeled E. coli SSB (tetramer concentration) were measured at 30° C. in 25 mM Tris.HCl pH 7.5, 200 mM NaCl, 1 mM DTT, and 5 μM bovine serum albumin.
(§2) In order to determine the effect of labeling on the affinity of E. coli SSB for ssDNA, dT₇₀ was titrated into a mixture of unlabeled E. coli SSB and IDCC-E. coli SSB (FIG. 4). It is apparent that low concentrations of DNA bind mainly to the unlabeled E. coli SSB, as there is only a small increase in fluorescence. This implies that the unlabeled protein has the higher affinity.

[2] = target: 6-IATR-E. coli SSB (W88C) (Escherichia coli, UniProt P0AGE0 SEQ:1-177, W88C (mature protein numbering as printed)); test: tight binding, saturates at 1:1 dT70:tetramer; 200 mM NaCl; details: tags: 6-IATR rhodamine label on Cys88; chain copies: 4 (stated, tetramer)
[3] = target: unlabeled E. coli SSB (S92C) (Escherichia coli, UniProt P0AGE0 SEQ:1-177, S92C (mature protein numbering as printed)); test: competition; binds dT70 28-fold more tightly than IDCC-SSB; details: chain copies: 4 (stated, tetramer)
Description: as §1, §2

[4] = target: Alexa Fluor 546-E. coli SSB (S92C) (Escherichia coli, UniProt P0AGE0 SEQ:1-177, S92C); test: 25 mM Tris pH 7.5, 200 mM NaCl, 30 C; details: tags: Alexa Fluor 546 label on Cys92; chain copies: 4 (stated, tetramer)
Description: as §1
(§3) Excitation was at the appropriate wavelength for the fluorophore and the emission intensities at the maximum were measured in the absence and presence of saturating dT₇₀. The two coumarins, IDCC and MDCC gave the largest fluorescence enhancement with G26C and this mutant protein labeled with IDCC, IDCC-E. coli SSB, was chosen for further study for two reasons. Firstly it gave consistently a larger increase than MDCC. […] In the case of MDCC, reaction of its maleimide with a protein cysteine causes the production of diastereoisomers. […] In contrast, reaction of IDCC with a thiol should produce only a single molecular species.

[5] = target: 6-IATR-E. coli SSB (G26C) (Escherichia coli, UniProt P0AGE0 SEQ:1-177, G26C); test: 25 mM Tris pH 7.5, 200 mM NaCl, 30 C; details: tags: 6-IATR label on Cys26; chain copies: 4 (stated, tetramer)
Description: as §1, §3

[6] = target: MDCC-E. coli SSB (S92C) (Escherichia coli, UniProt P0AGE0 SEQ:1-177, S92C); test: 25 mM Tris pH 7.5, 200 mM NaCl, 30 C; details: tags: MDCC label on Cys92; chain copies: 4 (stated, tetramer)
Description: as §1, §3

[7] = target: MIANS-E. coli SSB (S92C) (Escherichia coli, UniProt P0AGE0 SEQ:1-177, S92C); test: 25 mM Tris pH 7.5, 200 mM NaCl, 30 C; details: tags: MIANS label on Cys92; chain copies: 4 (stated, tetramer)
Description: as §1, §3

[8] = target: MDCC-E. coli SSB (G26C) (Escherichia coli, UniProt P0AGE0 SEQ:1-177, G26C); test: 25 mM Tris pH 7.5, 200 mM NaCl, 30 C; details: tags: MDCC label on Cys26; chain copies: 4 (stated, tetramer)
Description: as §1, §3

[9] = target: IDCC-E. coli SSB (S92C) (Escherichia coli, UniProt P0AGE0 SEQ:1-177, S92C); test: 25 mM Tris pH 7.5, 200 mM NaCl, 30 C; details: tags: IDCC label on Cys92; chain copies: 4 (stated, tetramer)
Description: as §1, §3

[10] = target: Alexa Fluor 488-E. coli SSB (G26C) (Escherichia coli, UniProt P0AGE0 SEQ:1-177, G26C); test: 25 mM Tris pH 7.5, 200 mM NaCl, 30 C; details: tags: Alexa Fluor 488 label on Cys26; chain copies: 4 (stated, tetramer)
Description: as §1, §3

[11] = target: Alexa Fluor 546-E. coli SSB (G26C) (Escherichia coli, UniProt P0AGE0 SEQ:1-177, G26C); test: 25 mM Tris pH 7.5, 200 mM NaCl, 30 C; details: tags: Alexa Fluor 546 label on Cys26; chain copies: 4 (stated, tetramer)
Description: as §1, §3

[12] = target: Alexa Fluor 488-E. coli SSB (S92C) (Escherichia coli, UniProt P0AGE0 SEQ:1-177, S92C); test: 25 mM Tris pH 7.5, 200 mM NaCl, 30 C; details: tags: Alexa Fluor 488 label on Cys92; chain copies: 4 (stated, tetramer)
Description: as §1, §3

[13] = target: 6-IATR-E. coli SSB (S92C) (Escherichia coli, UniProt P0AGE0 SEQ:1-177, S92C); test: 25 mM Tris pH 7.5, 200 mM NaCl, 30 C; details: tags: 6-IATR label on Cys92; chain copies: 4 (stated, tetramer)
Description: as §1, §3

[14] = target: T1, IDCC-E. coli SSB (G26C); test: 25 mM Tris pH 7.5, 200 mM NaCl, 30 C; details: tags: IDCC diethylaminocoumarin label on Cys26; chain copies: 4 (stated, tetramer)
Description: as §1, §3

B1: dT70 (ssDNA)
DNA: TTTTTTTTTTTTTTTTTTTTTTTTTTTTTTTTTTTTTTTTTTTTTTTTTTTTTTTTTTTTTTTTTTTTTT
binding signal [1]: 28 fold Kd vs unlabeled SSB S92C
activity [2]: ~4.5 fold fluorescence (+/- DNA)
binding result [3]: binds
activity [4]: 1.5 fluorescence ratio +/- dT70
activity [5]: 2.8 fluorescence ratio +/- dT70
activity [6]: 2.2 fluorescence ratio +/- dT70
activity [7]: 0.4 fluorescence ratio +/- dT70
activity [8]: 4.9 fluorescence ratio +/- dT70
activity [9]: 2.8 fluorescence ratio +/- dT70
activity [10]: 3.3 fluorescence ratio +/- dT70
activity [11]: 2.3 fluorescence ratio +/- dT70
activity [12]: 3.1 fluorescence ratio +/- dT70
activity [13]: 1.3 fluorescence ratio +/- dT70
activity [14]: 6.1 fluorescence ratio +/- dT70
